The values below come from publication PMC4650537, “Loss of Caspase-3 sensitizes colon cancer cells to genotoxic stress via RIP1-dependent necrosis” (Cell Death & Disease, 2015).

The assay addresses T1, pro-caspase-8 (human (endogenous in HCT116), UniProt Q14790 1-479).
T1 construct: caspase-8, human, endogenous in HCT116 colon cancer cells; Precipitated with a caspase-8 antibody (IP-Cas-8); also called Cas-8; source: endogenous, HCT116 (WT or caspase-3 knockout) whole cell lysate
As to the kind of experiment: co-IP; IP with caspase-8 antibody (IP-Cas-8) from lysates of HCT116 WT or C3KO cells treated with DMSO or 5-FU (50 μg/ml) for 24 h; also with z-VAD (20 μM) and with or without glutathione (GSH, 10 μM); blots quantified (Supplementary Tables S2, S3). Particulars: partners not purified.

T1 sequence (Q14790 whole entry): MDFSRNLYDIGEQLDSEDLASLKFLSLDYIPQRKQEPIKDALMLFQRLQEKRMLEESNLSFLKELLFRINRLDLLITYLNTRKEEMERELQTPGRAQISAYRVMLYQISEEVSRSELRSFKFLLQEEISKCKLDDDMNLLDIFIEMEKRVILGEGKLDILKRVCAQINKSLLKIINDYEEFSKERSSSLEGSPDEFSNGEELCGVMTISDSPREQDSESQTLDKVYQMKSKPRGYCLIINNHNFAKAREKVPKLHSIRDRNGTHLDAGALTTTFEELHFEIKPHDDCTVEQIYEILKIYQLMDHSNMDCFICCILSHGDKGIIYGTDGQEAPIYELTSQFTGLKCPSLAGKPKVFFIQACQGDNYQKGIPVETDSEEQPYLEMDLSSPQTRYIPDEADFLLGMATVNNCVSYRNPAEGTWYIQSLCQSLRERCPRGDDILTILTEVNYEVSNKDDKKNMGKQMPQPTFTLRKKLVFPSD

B1: Fas (TNFRSF6)-associated via death domain (natural protein, human (endogenous in HCT116), UniProt Q13158 1-208, looked up)
chain: MDPFLVLLHSVSSSLSSSELTELKFLCLGRVGKRKLERVQSGLDLFSMLLEQNDLEPGHTELLRELLASLRRHDLLRRVDDFEAGAAAGAAPGEEDLCAAFNVICDNVGKDWRRLARQLKVSDTKIDSIEDRYPRNLTERVRESLRIWKNTEKENATVAHLVGALRSCQMNLVADLVQEVQQARDLQNRSGAMSPMSWNSDASTSEAS
notes: FADD, human, endogenous in HCT116 colon cancer cells; also called FADD; source: endogenous, HCT116 (WT or caspase-3 knockout) whole cell lysate
For the molecule B1, the “quantified 5-FU-induced FADD in the complex (C3KO cells, without z-VAD; FADD term of the FADD to RIP1 ratio)” value stood at 1.82 and the “quantified 5-FU-induced FADD in the complex (with z-VAD; FADD term of the FADD to RIP1 ratio)” value amounted to 7.5.

B2: receptor (TNFRSF)-interacting serine-threonine kinase 1 (natural protein, human (endogenous in HCT116), UniProt Q13546 1-671, looked up)
chain: MQPDMSLNVIKMKSSDFLESAELDSGGFGKVSLCFHRTQGLMIMKTVYKGPNCIEHNEALLEEAKMMNRLRHSRVVKLLGVIIEEGKYSLVMEYMEKGNLMHVLKAEMSTPLSVKGRIILEIIEGMCYLHGKGVIHKDLKPENILVDNDFHIKIADLGLASFKMWSKLNNEEHNELREVDGTAKKNGGTLYYMAPEHLNDVNAKPTEKSDVYSFAVVLWAIFANKEPYENAICEQQLIMCIKSGNRPDVDDITEYCPREIISLMKLCWEANPEARPTFPGIEEKFRPFYLSQLEESVEEDVKSLKKEYSNENAVVKRMQSLQLDCVAVPSSRSNSATEQPGSLHSSQGLGMGPVEESWFAPSLEHPQEENEPSLQSKLQDEANYHLYGSRMDRQTKQQPRQNVAYNREEERRRRVSHDPFAQQRPYENFQNTEGKGTAYSSAASHGNAVHQPSGLTSQPQVLYQNNGLYSSHGFGTRPLDPGTAGPRVWYRPIPSHMPSLHNIPVPETNYLGNTPTMPFSSLPPTDESIKYTIYNSTGIQIGAYNYMEIGGTSSSLLDSTNTNFKEEPAAKYQAIFDNTTSLTDKHLDPIRENLGKHWKNCARKLGFTQSQIDEIDHDYERDGLKEKVYQMLQKWVMREGIKGATVGKLAQALHQCSRIDLLSSLIYVSQN
notes: also called RIP1; RIP; source: endogenous, HCT116 (WT or caspase-3 knockout) whole cell lysate
Regarding B2, the “quantified 5-FU-induced RIP1 in the complex (with z-VAD; RIP1 term of the FADD to RIP1 ratio)” value amounted to 7.3.
